Measured values taken from patent US20240400715A1 (VIBRANT PHARMA, published 2024).
Values joined by “and” are separate entries in the source; they are usually repeats but may differ in a detail not shown here. Equal values may be shown once. One block for each binder: values may come before it.

Columns and labels:
[1] = target: T1, human CD3 on Jurkat cells (human, UniProt P07766 23-207; P04234 22-171; P09693 23-182); assay: FACS, Jurkat cells;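 note: flow cytometric binding of bispecific antibodies to Jurkat T cells, threefold serial dilutions incubated half an hour in the cold, EC50 taken from the fitted binding curve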
T1 construct: whole, on cells; CD3 complex as on Jurkat (Clone E6-1) cells; also called CD3 expressing cells (Jurkat)

[2] = target: T2, human CD3ε/δ (ACRO systems, CDD-H52W1) (human, UniProt P07766 23-126; P04234 22-105); assay: BLI, antibody captured, antigen in solution;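 note: bispecific antibodies captured on AHIC biosensors to a 1.5 nm loading signal, in PBST with 0.02% detergent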
T2 construct: Bought protein; also called human CD3ϵ/CD3δ; human CD3 epsilon/delta antigen
Description: The bispecific antibodies were diluted to 5 ag/ml, and 1.5 nm protein was coupled to the surface of the AHIC sensor chip through 0.02% PBST.

- EC50 [1]: 0.146 µg/mL and 1.12 nM
- Kd [2]: 3.24 nM
- koff [2]: 0.000565 s⁻¹
- kon [2]: 157000 M⁻¹ s⁻¹
B1: 312 (TA7), configuration of FIG. 1X (bispecific antibody, IgG4)
heavy: EVQLVQSGAEVKKPGASVKVSCKASGFTFTSYYIHWVRQAPGQGLEWIGWIYPENDNTKYNEKFKDRVTITADTSTSTAYLELSSLRSEDTAVYYCARDGYSRYYFDYWGQGTLVTVSSASTKGPSVFPLAPCSRSTSESTAALGCLVKDYFPEPVTVSWNSGALTSGVHTFPAVLQSSGLYSLSSVVTVPSSSLGTKTYTCNVDHKPSNTKVDKRVESKYGPPCPPCPAPEAAGGPSVFLFPPKPKDTLMISRTPEVTCVVVDVSQEDPEVQFNWYVDGVEVHNAKTKPREEQFNSTYRVVSVLTVLHQDWLNGKEYKCKVSNKGLPSSIEKTISKAKGQPREPQVYTLPPCQEEMTKNQVSLWCLVKGFYPSDIAVEWESNGQPENNYKTTPPVLDSDGSFFLYSRLTVDKSRWQEGNVFSCSVMHEALHNHYTQKSLSLSLGGGGSGGGGSEVQLVESGGGFVQAGESLTLSCTSSTLTFTPYRMAWYRQAPGKQRDLVADISSGDGRTTNYADFAKGRFTISRDNIKNTVFLRMTNLKPEDTAVYYCNTFVSFVGIARSWGQGTQVTVSS
chain: ESKYGPPCPPCPAPEAAGGPSVFLFPPKPKDTLMISRTPEVTCVVVDVSQEDPEVQFNWYVDGVEVHNAKTKPREEQFNSTYRVVSVLTVLHQDWLNGKEYKCKVSNKGLPSSIEKTISKAKGQPREPQVCTLPPSQEEMTKNQVSLSCAVKGFYPSDIAVEWESNGQPENNYKTTPPVLDSDGSFFLVSRLTVDKSRWQEGNVFSCSVMHEALHNRFTQKSLSLSL
light: DIVMTQSPDSLAVSLGERATINCKSSQSLLNSRTRKNYLAWYQQKPGQSPKLLIYWTSTRKSGVPDRFSGSGSGTDFTLTISSLQAEDVAVYYCKQSFILRTFGQGTKVEIK
notes: chains put together from parts; IgG4, kappa; not shown: kappa light chain constant domain (CL)

- EC50 [1]: 5.32 µg/mL and 40.9 nM
- Kd [2]: 2.44 nM
- koff [2]: 0.000614 s⁻¹
- kon [2]: 252000 M⁻¹ s⁻¹
B2: Knob-CEA+Hole-Fab (112) (bispecific antibody, human IgG4 S228P, kappa, F234A L235A)
chain: ESKYGPPCPPCPAPEAAGGPSVFLFPPKPKDTLMISRTPEVTCVVVDVSQEDPEVQFNWYVDGVEVHNAKTKPREEQFNSTYRVVSVLTVLHQDWLNGKEYKCKVSNKGLPSSIEKTISKAKGQPREPQVYTLPPCQEEMTKNQVSLWCLVKGFYPSDIAVEWESNGQPENNYKTTPPVLDSDGSFFLYSRLTVDKSRWQEGNVFSCSVMHEALHNHYTQKSLSLSLGGGGSGGGGSEVQLVESGGGFVQAGESLTLSCTSSTLTFTPYRMAWYRQAPGKQRDLVADISSGDGRTTNYADFAKGRFTISRDNIKNTVFLRMTNLKPEDTAVYYCNTFVSFVGIARSWGQGTQVTVSS
heavy: ESKYGPPCPPCPAPEAAGGPSVFLFPPKPKDTLMISRTPEVTCVVVDVSQEDPEVQFNWYVDGVEVHNAKTKPREEQFNSTYRVVSVLTVLHQDWLNGKEYKCKVSNKGLPSSIEKTISKAKGQPREPQVCTLPPSQEEMTKNQVSLSCAVKGFYPSDIAVEWESNGQPENNYKTTPPVLDSDGSFFLVSRLTVDKSRWQEGNVFSCSVMHEALHNRFTQKSLSLSLGGGGSGGGGSEVKLLESGGGLVQPKGSLKLSCAASGFTFNTYAMNWVRQAPGKGLEWVARIRSKYNNYATYYADSVKDRFTISRDDSQSILYLQMNNLKTEDTAMYYCVRHGNFGNSYVSWFAYWGQGTLVTVSSASTKGPSVFPLAPCSRSTSESTAALGCLVKDYFPEPVTVSWNSGALTSGVHTFPAVLQSSGLYSLSSVVTVPSSSLGTKTYTCNVDHKPSNTKVDKRV
light: QAVVTQESALTTSPGETVTLTCRSSTGAVTTSNYANWVQEKPDHLFTGLIGGTNKRAPGVPARFSGSLIGDKAALTITGAQTEDEAIYFCALWYSNLWVFGGGTKVEIKRTVAAPSVFIFPPSDEQLKSGTASVVCLLNNFYPREAKVQWKVDNALQSGNSQESVTEQDSKDSTYSLSSTLTLSKADYEKHKVYACEVTHQGLSSPVTKSFNRGEC
notes: Anti-CD3 TA1 Fab + anti-CEA VHH C17 on human IgG4 knob-into-hole Fc
